Values quoted from earlier work as cited in article PMC5009806.
pKd: −log10 of the molar value.

Target: amyloid beta (Homo sapiens) (UniProt P05067)
Assay: SPR

pKd: 9.22
Substance: Gantenerumab
